The values that follow come from publication PMC10838295.

This experiment deals with pyrrolated BSA (pyrBSA), P02769. Nature of the experiment: ELISA. As to conditions: chain shown with the change, left panel, antigen pyrBSA, read off a plot. In general terms: An ELISA detects its analyte on a solid surface through an enzyme-linked reagent.
Chain of pyrrolated BSA (pyrBSA), P02769 (P02769 25-607): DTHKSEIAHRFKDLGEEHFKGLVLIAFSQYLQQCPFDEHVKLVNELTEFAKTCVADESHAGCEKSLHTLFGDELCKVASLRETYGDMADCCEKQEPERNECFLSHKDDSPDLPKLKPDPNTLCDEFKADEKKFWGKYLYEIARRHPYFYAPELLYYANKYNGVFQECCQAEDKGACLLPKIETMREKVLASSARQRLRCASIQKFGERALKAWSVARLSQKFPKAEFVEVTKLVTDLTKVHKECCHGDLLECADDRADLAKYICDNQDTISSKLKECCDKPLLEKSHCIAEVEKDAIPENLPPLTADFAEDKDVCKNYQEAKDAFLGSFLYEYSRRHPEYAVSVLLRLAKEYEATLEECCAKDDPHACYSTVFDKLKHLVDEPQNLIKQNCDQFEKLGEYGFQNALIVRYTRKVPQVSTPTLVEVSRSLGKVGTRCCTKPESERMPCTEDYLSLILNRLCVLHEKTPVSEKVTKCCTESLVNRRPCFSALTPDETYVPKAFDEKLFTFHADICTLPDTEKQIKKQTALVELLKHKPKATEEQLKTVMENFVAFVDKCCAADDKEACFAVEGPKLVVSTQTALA

B1: VH DO1 (VH-His6 of scFv DO1) R97A (protein)
chain: EVQLQQSGPELVKPGASVKMSCKASGYTFTSYVMHWVKQKPGQGLEWIGYINPHNDGTKYNEKFKGKATLTSDKSSSTAYMELSSLTSEDSAVYYCARKLAGFAYWGQGTLVTVSS
Take B1: the response runs as follows: (VH about 6.4 nM (4th point of the titration, read from the log x axis), parent: est. 1.7) 0.65 Abs (490 nm); (VH about 16 nM (5th point of the titration, read from the log x axis), parent: est. 3.1) 1.9 Abs (490 nm).
